Substitutions are numbered along the chain they refer to. Numbers in names are those of the source. Each block holds one binder with its values, some of them ahead of it.
Legend:
[1] = biological target: T1, huFcRn (human, UniProt P55899 24-297; P61769 21-119, limits assumed); assay: SPR at pH 6.0: 250 nM and 1000 nM huFcRn passed over captured antibody
T1 construct: source and construct are not described; also called human FcRn

[2] = biological target: T2, cynomolgus monkey ADAM9 (cynoADAM9) on cells (cynomolgus monkey, UniProt Q13443 206-819 (human entry)); assay: FACS, 300-19 cells expressing cynomolgus ADAM9
T2 construct: also called Cho-K/cynoADAM9 clone 2; Cho-K/cynoADAM9 clone #16
T2 chain: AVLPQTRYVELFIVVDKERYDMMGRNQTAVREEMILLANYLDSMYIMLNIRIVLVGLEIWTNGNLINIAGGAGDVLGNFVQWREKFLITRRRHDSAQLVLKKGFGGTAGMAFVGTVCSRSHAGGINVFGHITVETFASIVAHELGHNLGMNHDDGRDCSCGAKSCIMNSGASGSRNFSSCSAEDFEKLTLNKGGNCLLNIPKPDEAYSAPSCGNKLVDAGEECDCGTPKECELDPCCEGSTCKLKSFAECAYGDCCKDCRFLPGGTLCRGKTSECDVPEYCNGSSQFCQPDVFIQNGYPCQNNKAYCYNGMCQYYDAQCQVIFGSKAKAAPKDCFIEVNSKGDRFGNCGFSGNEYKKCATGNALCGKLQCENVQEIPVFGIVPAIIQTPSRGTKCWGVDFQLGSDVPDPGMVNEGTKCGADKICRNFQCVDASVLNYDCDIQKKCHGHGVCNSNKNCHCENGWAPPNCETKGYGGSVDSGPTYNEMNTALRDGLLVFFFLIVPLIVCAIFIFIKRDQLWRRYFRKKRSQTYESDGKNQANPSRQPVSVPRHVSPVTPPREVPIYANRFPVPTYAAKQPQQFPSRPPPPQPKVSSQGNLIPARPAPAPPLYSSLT

[3] = biological target: T3, His-tagged soluble human ADAM9 (shADAM9-His) (human, UniProt Q13443 206-697); assay: SPR (BIACORE), antibody captured, huADAM9-His in flow
T3 construct: Contains an extracellular portion of human ADAM9; also called huADAM9-His; His peptide-tagged soluble huADAM9
T3 sequence: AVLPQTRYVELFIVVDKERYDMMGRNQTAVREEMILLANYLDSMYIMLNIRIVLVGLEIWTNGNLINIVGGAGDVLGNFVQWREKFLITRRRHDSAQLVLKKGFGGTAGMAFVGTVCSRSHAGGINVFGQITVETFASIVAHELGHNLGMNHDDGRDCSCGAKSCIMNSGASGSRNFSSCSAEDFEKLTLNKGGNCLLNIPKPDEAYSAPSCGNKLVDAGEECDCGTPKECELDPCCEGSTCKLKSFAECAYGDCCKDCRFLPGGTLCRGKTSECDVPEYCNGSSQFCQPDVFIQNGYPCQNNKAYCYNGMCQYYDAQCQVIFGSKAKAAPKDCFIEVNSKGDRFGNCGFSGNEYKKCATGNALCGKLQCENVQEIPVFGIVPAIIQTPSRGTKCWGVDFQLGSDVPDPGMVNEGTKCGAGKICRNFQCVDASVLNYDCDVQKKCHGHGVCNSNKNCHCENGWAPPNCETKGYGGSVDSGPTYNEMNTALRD

[4] = biological target: T2, cynomolgus monkey ADAM9 (cynoADAM9) on …; assay: FACS, EC50 on 300-19 cynoADAM9 cells over EC50 on 300-19 huADAM9 cells
[5] = biological target: T3, His-tagged soluble human ADAM9 …; assay: ELISA: His-tagged soluble huADAM9 (0.5 µg/mL) captured by plate-coated anti-His antibody; serial dilutions of antibody about 0.2-500 ng/mL; abs @450nm
[6] = biological target: T4, human ADAM9 (huADAM9) on cells (human, UniProt Q13443 206-819); assay: FACS, 300-19 cells expressing human ADAM9
T4 construct: The pro-domain is said to be cleaved (Arg-205/Ala-206) in the mature protein; also called Cho-K/huADAM9; Cho-K/hu ADAM9.2
T4 sequence: T2 chain with A69V, H130Q, D421G, I441V, R521S, V546G, P569A

[7] = biological target: T4, human ADAM9 (huADAM9) on cells; assay: cell-based or functional assay
[8] = biological target: T3, His-tagged soluble human ADAM9 …; assay: SPR (BIACORE), antibody captured on anti-human Fc, shADAM9-His 6.25-100 nM, 1:1 Langmuir

Fold-specificity (IC50 control ADC/IC50 anti-ADAM9 ADC), A498 [7]: 30 fold | Fold-specificity (IC50 control ADC/IC50 anti-ADAM9 ADC), DLD-1 [7]: 63 fold | Fold-specificity (IC50 control ADC/IC50 anti-ADAM9 ADC), DU145 [7]: 32 fold | Fold-specificity (IC50 control ADC/IC50 anti-ADAM9 ADC), HPAF2 [7]: 13 fold | Fold-specificity (IC50 control ADC/IC50 anti-ADAM9 ADC), HS578T [7]: 20 fold | Fold-specificity (IC50 control ADC/IC50 anti-ADAM9 ADC), IGROV1 [7]: 8 fold | Fold-specificity (IC50 control ADC/IC50 anti-ADAM9 ADC), KATO III [7]: 11 fold | Fold-specificity (IC50 control ADC/IC50 anti-ADAM9 ADC), NCI-H1703 [7]: 132 fold | EC50 [2]: 4.9 nM | cyno/human (ratio of EC50) [4]: 3 | EC50 [6]: 1.55 nM
B2: hMAB-A(2I.2)-sSPDB-DM4 (antibody, human IgG1, kappa)
heavy: not shown
light: DIVMTQSPDSLAVSLGERATISCKASQSVDYSGDSYMNWYQQKPGQPPKLLIYAASDLESGIPARFSGSGSGTDFTLTISSLEPEDFATYYCQQSHEDPFTFGQGTKLEIKRTVAAPSVFIFPPSDEQLKSGTASVVCLLNNFYPREAKVQWKVDNALQSGNSQESVTEQDSKDSTYSLSSTLTLSKADYEKHKVYACEVTHQGLSSPVTKSFNRGEC
modifications: lysine-linked DM4, sites not given; DM4 linked through sulfo-SPDB to lysine residues of the antibody, sites not given; average 3.5 mol DM4/mol antibody
In Vitro Cytotoxicity (IC50 nM), A498 [7]: 0.108 nM | In Vitro Cytotoxicity (IC50 nM), DLD-1 [7]: 0.386 nM | In Vitro Cytotoxicity (IC50 nM), DU145 [7]: 0.439 nM | In Vitro Cytotoxicity (IC50 nM), HPAF2 [7]: 0.422 nM | In Vitro Cytotoxicity (IC50 nM), HS578T [7]: 0.094 nM | In Vitro Cytotoxicity (IC50 nM), IGROV1 [7]: 1.41 nM | In Vitro Cytotoxicity (IC50 nM), KATO III [7]: 0.48 nM | In Vitro Cytotoxicity (IC50 nM), NCI-H1703 [7]: 0.028 nM

EC50 (read off the curve) [5]: ~9 ng/mL
B3: hMAB-A (2I.2)(AA) (antibody, human IgG1, kappa, L234A L235A)
heavy: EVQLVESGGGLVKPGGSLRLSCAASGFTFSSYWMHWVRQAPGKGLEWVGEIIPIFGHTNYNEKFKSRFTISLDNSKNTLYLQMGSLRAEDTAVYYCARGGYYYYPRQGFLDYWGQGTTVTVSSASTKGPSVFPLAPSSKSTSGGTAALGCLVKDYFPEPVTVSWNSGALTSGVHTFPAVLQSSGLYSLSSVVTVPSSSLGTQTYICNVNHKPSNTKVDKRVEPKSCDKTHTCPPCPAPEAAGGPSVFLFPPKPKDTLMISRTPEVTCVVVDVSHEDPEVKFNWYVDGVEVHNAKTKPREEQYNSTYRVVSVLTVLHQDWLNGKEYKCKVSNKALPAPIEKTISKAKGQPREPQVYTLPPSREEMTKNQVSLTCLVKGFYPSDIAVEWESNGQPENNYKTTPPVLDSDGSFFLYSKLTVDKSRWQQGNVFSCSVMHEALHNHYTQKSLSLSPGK
light: B2 light
notes: Last residue X is lysine or absent; also called L234A/L235A Fc variant of hMAB-A (2I.2)

EC50 (read off the curve) [5]: ~9 ng/mL
B4: hMAB-A (2I.2)(AA/C) (antibody)
heavy: EVQLVESGGGLVKPGGSLRLSCAASGFTFSSYWMHWVRQAPGKGLEWVGEIIPIFGHTNYNEKFKSRFTISLDNSKNTLYLQMGSLRAEDTAVYYCARGGYYYYPRQGFLDYWGQGTTVTVSSASTKGPSVFPLAPSSKSTSGGTAALGCLVKDYFPEPVTVSWNSGALTSGVHTFPAVLQSSGLYSLSSVVTVPSSSLGTQTYICNVNHKPSNTKVDKRVEPKSCDKTHTCPPCPAPEAAGGPSVFLFPPKPKDTLMISRTPEVTCVVVDVSHEDPEVKFNWYVDGVEVHNAKTKPREEQYNSTYRVVSVLTVLHQDWLNGKEYKCKVSNKALPAPIEKTISKAKGQPREPQVYTLPPSREEMTKNQVSLTCLVKGFYPSDIAVEWESNGQPENNYKTTPPVLDSDGSFFLYSKLTVDKSRWQQGNVFSCSVMHEALHNHYTQKSLCLSPGK
light: B2 light
notes: Last residue X is lysine or absent; also called L234A/L235A/S442C Fc variant of hMAB-A (2I.2)

EC50 [2]: 3.8 nM | Kd [3]: 1.4 nM | koff [3]: 0.00081 s⁻¹ | kon [3]: 590000 M⁻¹ s⁻¹ | cyno/human (ratio of EC50) [4]: 3 | EC50 [6]: 1.22 nM
B5: hMAB-A (2C.2) (antibody, human IgG1, kappa, V domains shown)
VH: EVQLVESGGGLVKPGGSLRLSCAASGFTFSSYWMHWVRQAPGKGLEWVGEIIPIFGHTNYNEKFKSRFTISLDNSKNTLYLQMGSLRAEDTAVYYCARGGYYYYPRFGWLDYWGQGTTVTVSS
VL: DIVMTQSPDSLAVSLGERATISCKASQSVDYSGDSYMNWYQQKPGQPPKLLIYAASDLESGIPARFSGSGSGTDFTLTISSLEPEDFATYYCQQSHEDPFTFGQGTKLEIKR
notes: IgG1 kappa; also called MAB-A VH(2C); MAB-A VH(2C.2)

EC50 [2]: 3.8 nM | cyno/human (ratio of EC50) [4]: 3 | EC50 (read off the curve) [5]: ~9 ng/mL | EC50 [6]: 1.33 nM
B6: hMAB-A(2I.2)-S442C (antibody)
heavy: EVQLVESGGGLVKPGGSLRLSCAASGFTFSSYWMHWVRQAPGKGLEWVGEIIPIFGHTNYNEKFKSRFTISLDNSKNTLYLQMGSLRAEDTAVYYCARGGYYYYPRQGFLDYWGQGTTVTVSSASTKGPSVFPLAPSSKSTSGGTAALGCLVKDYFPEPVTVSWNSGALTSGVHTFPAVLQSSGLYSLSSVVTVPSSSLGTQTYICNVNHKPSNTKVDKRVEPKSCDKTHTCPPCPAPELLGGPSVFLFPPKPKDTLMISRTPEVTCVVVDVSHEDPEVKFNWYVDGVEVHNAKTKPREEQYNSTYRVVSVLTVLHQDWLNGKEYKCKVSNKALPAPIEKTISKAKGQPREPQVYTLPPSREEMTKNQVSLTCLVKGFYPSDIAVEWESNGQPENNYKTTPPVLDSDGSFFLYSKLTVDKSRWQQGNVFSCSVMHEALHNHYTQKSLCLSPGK
light: B2 light
notes: IgG1 kappa with engineered Cys S442C (EU index); also called hMAB-A (2I.2)(C)

Kd [8]: 3.5 nM
B8: hMAB-A (1.1) (antibody, V domains shown)
VH: B5 VH with F55N, P105G, R106S, F107R, G108D, W109Y, L110F
VL: DIVMTQSPDSLAVSLGERATISCKASQSVDYDGDSYMNWYQQKPGQPPKLLIYAASDLESGIPARFSGSGSGTDFTLTISSLEPEDFATYYCQQSHEDPFTFGQGTKLEIK
notes: also called hMAB-A VH(1)/hMAB-A VL(1)

Kd [8]: 2 nM
B9: hMAB-A (4.4) (antibody, V domains shown)
VH: B5 VH with M34I, K63R, K65Q, S66G, P105G, R106S, F107R, G108D, W109Y, L110F
VL: B8 VL with K24R, D32S, M37L, H96Y, E97S, D98T
notes: also called hMAB-A VH(4)/hMAB-A VL(4)

Continued, binder first:

B1: hMAB-A (2I.2) (antibody, human IgG1, kappa)
heavy: not shown
light: B2 light
notes: Kappa light chain, wild-type IgG1 heavy chain constant regions; also called MAB-A VH(2I); MAB-A VH(2I.2)
Kd [1]: 3400 nM | EC50 [2]: 4.1 nM | Kd [3]: 0.4 nM | koff [3]: 0.00023 s⁻¹ | kon [3]: 660000 M⁻¹ s⁻¹ | cyno/human (ratio of EC50) [4]: 3 | EC50 (read off the curve) [5]: ~9 ng/mL | EC50 [6]: 1.49 nM

B7: hMAB-A(2I.2)-S442C-DGN549 (antibody)
heavy: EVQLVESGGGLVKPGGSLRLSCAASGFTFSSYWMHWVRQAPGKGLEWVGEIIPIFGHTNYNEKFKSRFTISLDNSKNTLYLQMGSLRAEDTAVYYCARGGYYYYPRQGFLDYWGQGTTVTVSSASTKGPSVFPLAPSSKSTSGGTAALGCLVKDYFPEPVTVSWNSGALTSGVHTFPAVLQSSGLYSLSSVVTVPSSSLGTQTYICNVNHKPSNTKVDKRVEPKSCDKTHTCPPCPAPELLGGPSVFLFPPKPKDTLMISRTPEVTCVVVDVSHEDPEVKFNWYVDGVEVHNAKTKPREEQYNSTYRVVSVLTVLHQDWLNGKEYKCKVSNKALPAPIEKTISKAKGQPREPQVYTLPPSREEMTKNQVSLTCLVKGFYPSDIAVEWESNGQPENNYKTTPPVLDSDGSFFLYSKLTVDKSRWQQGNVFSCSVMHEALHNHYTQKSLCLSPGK
light: B2 light
modifications: DGN549-C (compound D5) on the engineered Cys S442C (EU index; 6th to the last residue of SEQ ID NO 142 when X is lysine); average 1.9 mol DGN549/mol antibody
notes: also called huMAB-A(2I.2)-S442C-DGN549
Fold-specificity (IC50 control ADC/IC50 anti-ADAM9 ADC), A498 [7]: > 1000 fold | Fold-specificity (IC50 control ADC/IC50 anti-ADAM9 ADC), DLD-1 [7]: > 1000 fold | Fold-specificity (IC50 control ADC/IC50 anti-ADAM9 ADC), DU145 [7]: > 1000 fold | Fold-specificity (IC50 control ADC/IC50 anti-ADAM9 ADC), HPAF2 [7]: > 1000 fold | Fold-specificity (IC50 control ADC/IC50 anti-ADAM9 ADC), HS578T [7]: 646 fold | Fold-specificity (IC50 control ADC/IC50 anti-ADAM9 ADC), IGROV1 [7]: > 1000 fold | Fold-specificity (IC50 control ADC/IC50 anti-ADAM9 ADC), KATO III [7]: > 1000 fold | Fold-specificity (IC50 control ADC/IC50 anti-ADAM9 ADC), NCI-H1703 [7]: > 1000 fold | In Vitro Cytotoxicity (IC50 nM), A498 [7]: 0.004 nM | In Vitro Cytotoxicity (IC50 nM), DLD-1 [7]: 0.045 nM | In Vitro Cytotoxicity (IC50 nM), DU145 [7]: 0.004 nM | In Vitro Cytotoxicity (IC50 nM), HPAF2 [7]: 0.115 nM | In Vitro Cytotoxicity (IC50 nM), HS578T [7]: 0.017 nM | In Vitro Cytotoxicity (IC50 nM), IGROV1 [7]: 0.003 nM | In Vitro Cytotoxicity (IC50 nM), KATO III [7]: 0.065 nM | In Vitro Cytotoxicity (IC50 nM), NCI-H1703 [7]: 0.004 nM | EC50 [2]: 6.2 nM | cyno/human (ratio of EC50) [4]: 2 | EC50 [6]: 2.49 nM

B10: hMAB-A (2.3) (antibody, V domains shown)
VH: B5 VH with P105G, R106S, F107R, G108D, W109Y, L110F
VL: B8 VL with K24R, D32S
notes: also called hMAB-A VH(2)/hMAB-A VL(3)
Kd [8]: 1.3 nM

B11: hMAB-A (3.3) (antibody, V domains shown)
VH: B5 VH with K63R, K65Q, S66G, P105G, R106S, F107R, G108D, W109Y, L110F
VL: B8 VL with K24R, D32S
notes: also called hMAB-A VH(3)/hMAB-A VL(3)
Kd [8]: 1.4 nM

B12: chMAB-A (antibody, V domains shown)
VH: QVQLQQPGAELVKPGASVKLSCKASGYTFTSYWMHWVKQRPGQGLEWIGEIIPINGHTNYNEKFKSKATLTLDKSSSTAYMQLSSLASEDSAVYYCARGGYYYYGSRDYFDYWGQGTTLTVSS
VL: DIVLTQSPASLAVSLGQRATISCKASQSVDYDGDSYMNWYQQIPGQPPKLLIYAASDLESGIPARFSGSGSGTDFTLNIHPVEEEDAATYYCQQSHEDPFTFGGGTKLEIK
notes: also called chimeric version of MAB-A; chimeric chMAB-A
EC50 [2]: 112 nM | cyno/human (ratio of EC50) [4]: 273 | Kd [8]: 3.6 nM | EC50 [6]: 0.41 nM

From US20210388102A1 (IMMUNOGEN, published 2021)
